Test results: patent US20090031456A1 (MICHIGAN STATE UNIVERSITY, published 2009)

Biological target: AtMIN7-HA (Arabidopsis thaliana, UniProt F4IXW2 1-1739)
Test: transient co-expression in N. benthamiana leaves, pull-down and immunoblot

AtMIN7-HA, sequence (F4IXW2 other isoform, or with tags, fused parts or gaps limits assumed): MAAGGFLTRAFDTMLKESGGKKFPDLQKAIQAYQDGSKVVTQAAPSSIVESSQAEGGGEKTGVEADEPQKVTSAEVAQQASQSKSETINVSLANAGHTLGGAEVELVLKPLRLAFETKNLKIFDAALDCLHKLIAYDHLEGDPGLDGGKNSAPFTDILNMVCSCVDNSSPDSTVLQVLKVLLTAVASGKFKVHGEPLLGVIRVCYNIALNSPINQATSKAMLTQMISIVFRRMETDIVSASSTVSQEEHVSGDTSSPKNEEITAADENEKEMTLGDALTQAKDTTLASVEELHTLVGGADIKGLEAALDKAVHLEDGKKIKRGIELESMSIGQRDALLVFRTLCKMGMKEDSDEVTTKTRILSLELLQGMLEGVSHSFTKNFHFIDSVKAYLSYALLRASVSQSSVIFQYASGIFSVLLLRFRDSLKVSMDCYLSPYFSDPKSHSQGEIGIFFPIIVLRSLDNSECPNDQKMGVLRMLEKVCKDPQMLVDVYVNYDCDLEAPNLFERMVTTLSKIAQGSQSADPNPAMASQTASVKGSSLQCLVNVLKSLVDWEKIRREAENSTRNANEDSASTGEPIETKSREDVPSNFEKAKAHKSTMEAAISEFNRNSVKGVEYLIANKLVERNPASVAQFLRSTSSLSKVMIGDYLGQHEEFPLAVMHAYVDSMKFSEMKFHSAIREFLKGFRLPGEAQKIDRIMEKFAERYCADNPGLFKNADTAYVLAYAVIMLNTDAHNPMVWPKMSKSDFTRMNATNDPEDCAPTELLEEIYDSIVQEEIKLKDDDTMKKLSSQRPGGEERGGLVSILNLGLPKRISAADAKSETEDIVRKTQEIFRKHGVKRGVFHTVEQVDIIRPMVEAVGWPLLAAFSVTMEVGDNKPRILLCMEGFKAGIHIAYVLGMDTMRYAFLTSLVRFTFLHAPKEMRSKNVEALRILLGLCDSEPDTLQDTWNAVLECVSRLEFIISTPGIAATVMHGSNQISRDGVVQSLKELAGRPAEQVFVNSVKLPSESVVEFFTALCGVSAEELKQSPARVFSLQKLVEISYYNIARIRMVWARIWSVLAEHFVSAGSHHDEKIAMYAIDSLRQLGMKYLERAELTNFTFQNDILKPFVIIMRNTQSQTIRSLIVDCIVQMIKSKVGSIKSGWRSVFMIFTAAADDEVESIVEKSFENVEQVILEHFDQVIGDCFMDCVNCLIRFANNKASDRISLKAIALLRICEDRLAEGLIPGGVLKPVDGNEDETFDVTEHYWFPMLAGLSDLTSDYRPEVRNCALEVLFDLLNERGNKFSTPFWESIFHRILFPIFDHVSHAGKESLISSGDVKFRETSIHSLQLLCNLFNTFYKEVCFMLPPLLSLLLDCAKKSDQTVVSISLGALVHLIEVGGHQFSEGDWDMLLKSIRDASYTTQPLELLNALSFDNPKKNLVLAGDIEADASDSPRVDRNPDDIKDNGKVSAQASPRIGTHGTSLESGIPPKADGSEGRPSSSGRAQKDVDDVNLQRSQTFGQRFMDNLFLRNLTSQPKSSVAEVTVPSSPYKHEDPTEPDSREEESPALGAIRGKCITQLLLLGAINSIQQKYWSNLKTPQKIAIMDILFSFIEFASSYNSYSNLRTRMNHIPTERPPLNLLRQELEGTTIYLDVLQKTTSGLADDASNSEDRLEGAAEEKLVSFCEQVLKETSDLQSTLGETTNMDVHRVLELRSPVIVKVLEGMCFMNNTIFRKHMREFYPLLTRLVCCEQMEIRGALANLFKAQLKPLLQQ

B1: 6×His-HopM1 1-300 (other)
chain: MISSRIGGAGGVELSRVNQQHDTVPAQTAHPNAVTAGMNPPLTPDQSGSHATESSSAGAARLNVAARHTQLLQAFKAEHGTAPVSGAPMISSRAALLIGSLLQAEPLPFEVMAEKLSPERYQLKQFQGSDLQQRLEKFAQPGQIPDKAEVGQLIKGFAQSVADQLEHFQLMHDASPATVGQHAKADKATLAVSQTALGEYAGRASKAIGEGLSNSIASLDEHISALDLTLQDAEQGNKESLHADRQALVDAKTTLVGLHADFVKSPEAKRLASVAAHTQLDNVVSDLVTARNTVGGWKGA
notes: also called HopM1-300
B1: binds.
